Experimental findings from patent US20060191037, “Plant transcription factor that is involved in sugar signalling” (published 2006) are described below.

Common to all, as to conditions: tags: N-terminal His-tag (pET-15b, E. coli BL21(DE3))
Series [1] concerns the target T1, SUSIBA2 (WRKY transcription factor; purified fraction with 70 and 68 kDa forms) (Hordeum vulgare, UniProt Q6VWJ6 Q6VWJ6:1-573). The series can be described thus: EMSA; two complexes, attributed to 70 and 68 kDa forms. (In general: A gel shift assay detects complexes by their altered migration in electrophoresis.)
Series [2] concerns the target T1, SUSIBA2 (WRKY transcription factor; …). Put plainly: EMSA; strong binding. The source says: (§1) The 822-bp long SphI/HaeII fragment, encompassing SP8a and flanking sequences, as well as the 437-bp long BspHI/HaeII fragment, containing SP8a and downstream flanking sequence, formed prominent DNA-protein complexes with the purified SUSIBA2 fraction. Much to our surprise, however, the 510-bp long SphI/BsaI fragment, containing SP8a and upstream flanking sequence, bound only very poorly to SUSIBA2. We concluded that, in fact, the target for SUSIBA2 in the iso1 promoter is not SP8a but one or more sites downstream of the SP8a element. […] To follow up on this observation, we carried out EMSAs with oligonucleotides consisting of the iso1 SURE sequence.
(§2) EMSAs were carried out essentially as described by Sun et al. (1999). The competitor probes were prepared by annealing different non-labeled oligonucleotides in 14 mM Tris-HCl (pH 8.0), 7 mM MgCl₂.

Series [3] has the same target. Put plainly: EMSA; binding negligible.
Text: as §1, §2

T1 sequence (Q6VWJ6 whole entry, the tested form may be a part, one chain of several): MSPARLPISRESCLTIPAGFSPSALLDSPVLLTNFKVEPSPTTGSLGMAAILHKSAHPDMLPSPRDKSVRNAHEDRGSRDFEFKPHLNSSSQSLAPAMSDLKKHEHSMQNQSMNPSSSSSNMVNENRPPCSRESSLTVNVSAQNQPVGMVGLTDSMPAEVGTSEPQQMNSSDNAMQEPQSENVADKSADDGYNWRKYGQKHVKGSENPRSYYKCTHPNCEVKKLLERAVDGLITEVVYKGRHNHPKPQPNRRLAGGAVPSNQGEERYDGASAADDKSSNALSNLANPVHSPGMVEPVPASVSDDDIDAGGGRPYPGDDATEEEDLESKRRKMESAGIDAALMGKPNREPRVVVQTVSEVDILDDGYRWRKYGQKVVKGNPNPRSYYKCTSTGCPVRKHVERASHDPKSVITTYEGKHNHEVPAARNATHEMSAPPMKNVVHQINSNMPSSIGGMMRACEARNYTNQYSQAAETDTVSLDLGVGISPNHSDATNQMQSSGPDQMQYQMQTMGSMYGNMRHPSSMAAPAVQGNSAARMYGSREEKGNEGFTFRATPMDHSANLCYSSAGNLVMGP

B1: iso1 W box oligonucleotide (dsDNA)
DNA 1: TCGCTAACCAGTGACTTCCACGTTTCATCATTTATT
DNA 2: AATAAATGATGAAACGTGGAAGTCACTGGTTAGCGA
For the molecule B1, the binding result in series [1] was “binds”.

B2: iso1 SURE (SURE-b) oligonucleotide (dsDNA)
DNA 1: GGAAAACCGAAATACCAAAAAATAATAATAAAATAATAAT
DNA 2: ATTATTATTTTATTATTATTTTTTGGTATTTCGGTTTTCC
Consider B2, for which the binding result in series [2] is “binds”.

B3: iso1 SP8a oligonucleotide (dsDNA)
DNA 1: CCCTCGTGGAAGCAAAACTGTGTTTCTCGC
DNA 2: GCGAGAAACACAGTTTTGCTTCCACGAGGG
Regarding B3, in series [3], the binding result was “no binding”.
